Patent US20210395742
pEC50: −log10 of the molar value.

Tests used:
Assay in all cases: EMSA
[1] = tested on: Mouse IgG1 monoclonal antibody (including anti-streptavidin) (Mus musculus); conditions: T = 5-ethynyldeoxyuridine clicked with sulfo-HSAB (NHS ester); for pEC50: half-maximal covalent binding (estimate), Kd not determinable; for binding signal (% bound fraction): maximum covalent binding fraction
[2] = tested on: Mouse IgG2a (Mus musculus); conditions: T = 5-ethynyldeoxyuridine clicked with sulfo-HSAB (NHS ester), covalent binding fraction
[3] = tested on: Mouse IgG2b (Mus musculus); conditions: T = 5-ethynyldeoxyuridine clicked with sulfo-HSAB (NHS ester), covalent binding fraction
[4] = core of consensus SEQ:22, flanks not given
[5] = core of consensus SEQ:23, flanks not given

| Sequence | pEC50 ([1]; core of consensus SEQ:22, flanks not given, Cu(II) dependent) | binding signal (% bound fraction) [1, 4] | binding signal (% bound fraction) [2, 4] | binding signal (% bound fraction) [3, 4] | pEC50 [1, 5] | binding signal (% bound fraction) [1, 5] | binding signal (% bound fraction) [2, 5] | binding signal (% bound fraction) [3, 5] |
| --- | --- | --- | --- | --- | --- | --- | --- | --- |
| AGCGCGGAACCGTGCCTGGC [Fc clone 1] | > 8.00 | 40 | 40 | 10 |  |  |  |  |
| TAACGCARTAAGCGAG [Fc clone 2] |  |  |  |  | > 8.00 | 20 | 20 | 2 |
